Measurements from PMC4398755, “Cloning and expressing a highly functional and substrate specific farnesoic acid o-methyltransferase from the Asian citrus psyllid (Diaphorina citri Kuwayama)” (FEBS Open Bio, 2015).

T1: DcFA-o-MT (Diaphorina citri, UniProt A0A075W3Z0)
T1 sequence (A0A075W3Z0 1-272): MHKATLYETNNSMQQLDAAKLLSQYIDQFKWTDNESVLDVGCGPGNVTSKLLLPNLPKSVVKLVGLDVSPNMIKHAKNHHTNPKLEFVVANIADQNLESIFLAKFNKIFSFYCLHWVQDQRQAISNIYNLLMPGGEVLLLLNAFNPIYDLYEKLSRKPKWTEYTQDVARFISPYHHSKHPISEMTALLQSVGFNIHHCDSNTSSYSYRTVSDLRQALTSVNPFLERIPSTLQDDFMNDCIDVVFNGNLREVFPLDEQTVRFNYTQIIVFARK


Tests used:
Assay in all cases: radiometric [3H]SAM methyl transfer, RP-HPLC / rapid biphasic separation
DcFA-o-MT = target: T1, DcFA-o-MT; assay type: biochemical; settings: 10 μM SAM (saturating), 50 mM Tris-HCl pH 7.9, 25 °C, 30 min; no metal added; 357 pmol enzyme in 100 μL, well above Km; substrate 1-20 μM
From the text: (§1) radiometric [3H]SAM methyl transfer, RP-HPLC / rapid biphasic separation on DcFA-o-MT

[1] = substrate: CC/C(=C/CC/C(C)=C/C(=O)O)CCC1OC1(C)CC; assay type: biochemical, Diaphorina citri; settings: 10 μM SAM (saturating), 50 mM Tris-HCl pH 7.9, 25 °C, 30 min, no metal added, 357 pmol enzyme in 100 μL, well above Km, substrate 1-20 μM, error exceeds value, text b19 says Km is 100-fold that of FA,
From the text: as §1

[2] = substrate: CC/C(=C\CC/C(C)=C\C(=O)O)CCC1OC1(C)CC; assay type: biochemical, Diaphorina citri; settings: 10 μM SAM (saturating), 50 mM Tris-HCl pH 7.9, 25 °C, 30 min, no metal added, 357 pmol enzyme in 100 μL, well above Km, substrate 1-20 μM, printed kcat/Km 143.4 does not match the printed Km and kcat
From the text: as §1

[3] = substrate: C/C(=C\C(=O)O)CC/C=C(\C)CC[C@H]1OC1(C)C; assay type: biochemical, Diaphorina citri; settings: 10 μM SAM (saturating), 50 mM Tris-HCl pH 7.9, 25 °C, 30 min, no metal added, 357 pmol enzyme in 100 μL, well above Km, substrate 1-20 μM
From the text: as §1

[4] = substrate: CC(C)=CCC/C(C)=C/CC/C(C)=C/C(=O)O; assay type: biochemical, Diaphorina citri; settings: 10 μM SAM (saturating), 50 mM Tris-HCl pH 7.9, 25 °C, 30 min, no metal added, 357 pmol enzyme in 100 μL, well above Km, substrate 1-20 μM
From the text: as §1

| Molecule | Km (DcFA-o-MT) [µM] | Km [1] [µM] | Vmax [1] [µmol/min] | kcat/Km [1] [M⁻¹ s⁻¹] | Km [2] [µM] | Vmax [2] [µmol/min] | Km [3] [µM] | Vmax [3] [µmol/min] | kcat [3] [s⁻¹] | kcat/Km [3] [M⁻¹ s⁻¹] | Km [4] [µM] | Vmax [4] [µmol/min] | kcat [4] [s⁻¹] | kcat/Km [4] [M⁻¹ s⁻¹] |
| --- | --- | --- | --- | --- | --- | --- | --- | --- | --- | --- | --- | --- | --- | --- |
| homoFA | 0.02 ± 0.01 |  |  |  |  |  |  |  |  |  |  |  |  |  |
| DcFA-o-MT (Diaphorina citri) (protein) MHKATLYETNNSMQQLDAAKLLSQYIDQFKWTDNESVLDVGCGPGNVTSKLLLPNLPKSVVKLVGLDVSPNMIKHAKNHHTNPKLEFVVANIADQNLESIFLAKFNKIFSFYCLHWVQDQRQAISNIYNLLMPGGEVLLLLNAFNPIYDLYEKLSRKPKWTEYTQDVARFISPYHHSKHPISEMTALLQSVGFNIHHCDSNTSSYSYRTVSDLRQALTSVNPFLERIPSTLQDDFMNDCIDVVFNGNLREVFPLDEQTVRFNYTQIIVFARK |  | 4.58 ± 4.82 | 5e-08 | 0.66 | 5.65 ± 0.83 | 1.75e-06 | 2.53 ± 0.72 | 2.8e-07 | 1.3e-05 ± 2e-06 | 5.14 | 0.46 ± 0.05 | 1.61e-05 | 0.00075 ± 3e-05 | 1640 |
